Data on 2 molecules can be found in patent US20220127355A1 (INTEGRAL MOLECULAR, published 2022).

The target in assay [1] is T1, Claudin 6 (human) (human, UniProt P56747 1-220).
T1 construct: Expressed on transfected HEK-293T cells or naturally on PA-1 cells for flow cytometry; For the Octet KD values it was the intact protein embedded in virus-like particles (lipoparticles); also called hsCLDN6; CLDN6
T1 chain: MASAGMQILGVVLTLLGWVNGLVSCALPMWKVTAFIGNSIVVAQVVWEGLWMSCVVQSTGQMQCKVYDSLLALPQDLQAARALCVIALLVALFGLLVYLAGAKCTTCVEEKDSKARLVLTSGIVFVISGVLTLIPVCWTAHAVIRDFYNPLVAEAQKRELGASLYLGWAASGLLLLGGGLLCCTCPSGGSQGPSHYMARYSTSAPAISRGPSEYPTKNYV
The experiment in a line: biosensor (Forte Octet), intact claudin in virus-like particles (lipoparticles). The method, then: Affinity of various antibodies against CLDN6 as compared to CLDN9, CLDN3, and CLDN4 was measured using a biosensor. Biosensor affinity measurement of the various antibodies against the proteins was determined using a Forte Octet, which was used for biosensor measurements, using intact claudin proteins embedded in virus-like particles (lipoparticles). The KD for different antibodies is shown below.

The target in another assay is T2, D76A.
T2 construct: Shotgun Mutagenesis mutant; also called Claudin 6 D76A
T2 chain: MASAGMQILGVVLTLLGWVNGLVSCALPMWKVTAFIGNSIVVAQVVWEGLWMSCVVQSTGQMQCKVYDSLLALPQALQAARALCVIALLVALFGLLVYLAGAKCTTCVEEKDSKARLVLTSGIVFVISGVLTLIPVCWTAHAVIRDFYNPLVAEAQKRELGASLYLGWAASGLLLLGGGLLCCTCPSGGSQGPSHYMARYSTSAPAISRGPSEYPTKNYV
Put plainly: Shotgun Mutagenesis epitope mapping; mean (range), % of wild-type Claudin 6.

A further assay has as its target T3, A153S.
T3 construct: Shotgun Mutagenesis mutant; also called Claudin 6 A153S
T3 chain: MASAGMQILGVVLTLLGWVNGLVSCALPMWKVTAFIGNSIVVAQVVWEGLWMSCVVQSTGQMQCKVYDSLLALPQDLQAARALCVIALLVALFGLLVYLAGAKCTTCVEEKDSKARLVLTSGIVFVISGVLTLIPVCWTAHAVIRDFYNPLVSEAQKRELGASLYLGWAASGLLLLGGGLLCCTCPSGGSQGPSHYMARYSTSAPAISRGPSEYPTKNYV
The assay is described as above.

The target in the next assay is T4, Q156L.
T4 construct: Shotgun Mutagenesis mutant; also called Claudin 6 Q156L
T4 chain: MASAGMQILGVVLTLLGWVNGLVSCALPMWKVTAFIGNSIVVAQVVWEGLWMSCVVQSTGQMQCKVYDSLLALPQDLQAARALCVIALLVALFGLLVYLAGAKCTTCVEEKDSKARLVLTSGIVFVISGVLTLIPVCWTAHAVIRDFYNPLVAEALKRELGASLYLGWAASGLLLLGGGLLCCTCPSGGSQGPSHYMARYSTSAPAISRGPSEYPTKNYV
The description is as above.

In the next assay the target is T5, R158A.
T5 construct: Shotgun Mutagenesis mutant; also called Claudin 6 R158A
T5 chain: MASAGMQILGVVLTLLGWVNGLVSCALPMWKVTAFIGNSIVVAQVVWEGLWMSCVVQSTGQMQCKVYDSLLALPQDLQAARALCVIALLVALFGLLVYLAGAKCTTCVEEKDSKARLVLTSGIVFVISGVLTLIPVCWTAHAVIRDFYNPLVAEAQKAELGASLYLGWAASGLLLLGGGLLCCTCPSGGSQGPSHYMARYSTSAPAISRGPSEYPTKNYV
Described as above.

Another assay deals with T6, N38A.
T6 construct: Shotgun Mutagenesis mutant; also called Claudin 6 N38A
T6 chain: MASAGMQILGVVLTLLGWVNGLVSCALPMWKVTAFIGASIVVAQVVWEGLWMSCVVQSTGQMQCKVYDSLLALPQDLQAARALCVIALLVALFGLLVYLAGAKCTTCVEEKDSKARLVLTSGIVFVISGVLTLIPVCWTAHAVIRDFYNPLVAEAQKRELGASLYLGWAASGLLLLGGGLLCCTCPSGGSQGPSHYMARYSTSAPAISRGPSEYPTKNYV
The assay is described as above.

The next assay deals with T7, Y67A.
T7 construct: Shotgun Mutagenesis mutant; also called Claudin 6 Y67A
T7 chain: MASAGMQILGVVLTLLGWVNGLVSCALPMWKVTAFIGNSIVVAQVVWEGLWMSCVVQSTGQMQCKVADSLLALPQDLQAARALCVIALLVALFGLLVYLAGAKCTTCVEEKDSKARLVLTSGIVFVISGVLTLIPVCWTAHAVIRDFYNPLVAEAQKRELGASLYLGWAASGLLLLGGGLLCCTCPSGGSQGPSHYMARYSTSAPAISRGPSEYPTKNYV
The assay is described as above.

The target in another assay is T8, D68A.
T8 construct: Shotgun Mutagenesis mutant; also called Claudin 6 D68A
T8 chain: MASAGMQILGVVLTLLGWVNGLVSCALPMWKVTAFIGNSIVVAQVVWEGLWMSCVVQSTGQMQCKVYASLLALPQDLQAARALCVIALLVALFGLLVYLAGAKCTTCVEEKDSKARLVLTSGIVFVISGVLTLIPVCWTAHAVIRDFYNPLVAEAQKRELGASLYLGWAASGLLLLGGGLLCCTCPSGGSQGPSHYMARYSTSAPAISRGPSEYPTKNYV
The description is as above.

For assay [2], the target named is T1, Claudin 6 (human). The experiment in a line: flow cytometry, HEK-293T cells transiently transfected with human Claudin 6 (hsCLDN6); pUC = empty vector control. How it is done:
FIG. 1 illustrates the results of a binding assay showing that Claudin 6 MAbs bind to human Claudin 6. Human embryonic kidney 293T (HEK-293T) cells were transiently transfected with DNA for human Claudin 6 (hsCLDN6) or empty vector along with GFP (pUC) for 22 hours. Claudin 6 MAbs (IM136, IM171, IM172, and IM173) were added at serial dilutions (0.0-10 μg/mL) and incubated for 90 min with shaking. After a wash step, secondary antibody for detection (allophycocyanin-conjugated mouse anti-human IgG Fc; Southern Biotech) was added and incubated for 30-45 min. Cells were washed, and fluorescence was detected by high-throughput Intellicyt flow cytometry, with gating by graphing forward scatter against side scatter. Data were analyzed in GraphPad Prism software based on the geometric mean of fluorescence intensity for the cell population in each well.

B1: IM173 (antibody, V domains shown)
VH: AVTLDESGGGLQTPGGALSLVCKASGFTFSSYSMFWVRRAPGKGLEWVAGIDSGSTTFYGSAVKGRATISRDNGQSTVRLQLNNLRAEDTATYYCAKDAYGYCGWSGCSADSIDAWGHGTEVIVSS
VL: ALTQPSSVSANPGGTVEITCSGGNNYYGWYQQKSPGSAPVTVIYYNDKRPSDIPSRFSGSKSGSTGTLTITGVQADDEAVYFCGGWDSSGGIFGAGTTLTVL
notes: Detected with anti-human IgG Fc secondary
What is called Kd is the constant that tells how readily two partners part at equilibrium. A high value points to weaker binding. One may read the EC50 (read off the curve) as the concentration giving half of the maximal effect. Low values mean greater potency, high ones weaker potency. The molecule B1 returned a Kd with Claudin 6 (human) [1] of 0.32 nM. In addition, the “Binding Reactivity (% WT)” value with D76A came to 76.8 % WT; with A153S it was 113 % WT; with Q156L it was 10.7 % WT; in the assay with R158A, 3.6 % WT; with N38A, 86 % WT; with Y67A, 28.8 % WT. Further, the “Binding Reactivity (% WT)” value with D68A came to 89.6 % WT. Moreover, in the assay with Claudin 6 (human) [2], the 50% effective concentration (EC50 (read off the curve)) is roughly 0.4 µg/mL.

B2: IM171 (antibody, V domains shown)
VH: AVTLDESGGGLQTPGGALSLVCKASGFDFSSYAMNWVRQAPGKGLEWVAGIGSTGSSTGYGPAVKGRATISRDNGQSTLRLQLNNLRAEDTAIYYCAKSVGNGNSWSGYIATSIDAWGHGTEVIVSS
VL: ALTQPSSVSANLGGTVKLTCSGGSSGYGWYQQKSPGSAPVTVIYSNDKRPSDIPSRFSGSLSGSTGTLTITGVQADDEAVYFCGSTDNSYVGIFGAGTTLTVL
notes: Detected with anti-human IgG Fc secondary; also called LM171
In the case of B2, the Kd with Claudin 6 (human) [1] is 3 nM. The “Binding Reactivity (% WT)” value came out at 6 % WT with D76A; 24 % WT in the assay with A153S; 10 % WT in the assay with Q156L; 1.3 % WT with R158A; 22.4 % WT with N38A; 97.2 % WT with Y67A. The “Binding Reactivity (% WT)” value in the assay with D68A was 93.7 % WT. Also, in the assay with Claudin 6 (human) [2], the “EC50 (read off the curve)” value is roughly 0.4 µg/mL.
